# Molecular target: the molecule itself
# Assay: crystal structure; ^W59CCoa6 25 mg/ml in 20 mM Tris-MES pH 8.0, 150 mM NaCl; crystallized with 0.1 M Bis-Tris pH 5.7, 0.23 M MgCl2, 29% PEG 3350, 20°C; 2.2 Å; four molecules per asymmetric unit
row,Protein,binding result
1,"pathogenic mutant protein ^W59CCoa6 (natural protein, human, five residues left at the N terminus after cleavage of the GST tag with PreScission Protease; Coa6, human; residues 47-125 of the full-length Coa6 isoform 1 (UniProtKB Q5JTJ3) with the patient mutation W59C; In the crystal, Cys59 of each chain is joined by an intermolecular disulfide to Cys59 of another chain; not shown: GST, N-terminal, cleaved) GPLGSMAAPSMKERQVCCGARDEYWKCLDENLEDASQCKKLRSSFESSCPQQWIKYFDKRRDYLKFKEKFEAGQFEPSETTAKS",binds

# Molecular target: the molecule itself
# Assay: SEC; analytical SEC, Superdex 200 Increase 3.2/300, 100 μg protein, 20 mM Tris-MES pH 8.0, 150 mM NaCl, 0.05 ml/min; elution volumes compared with that of ^WTCoa6
row,Protein,stoichiometry N
1,"^Y97A/Y104ACoa6 (natural protein, human, five residues left at the N terminus after cleavage of the GST tag with PreScission Protease; Coa6, human; residues 47-125 of the full-length Coa6 isoform 1 (UniProtKB Q5JTJ3), mutations introduced into the ^WTCoa6 ORF; not shown: GST, N-terminal, cleaved) GPLGSMAAPSMKERQVCWGARDEYWKCLDENLEDASQCKKLRSSFESSCPQQWIKAFDKRRDALKFKEKFEAGQFEPSETTAKS",2
2,"^Y97ACoa6 (natural protein, human, five residues left at the N terminus after cleavage of the GST tag with PreScission Protease; Coa6, human; residues 47-125 of the full-length Coa6 isoform 1 (UniProtKB Q5JTJ3), mutation introduced into the ^WTCoa6 ORF; not shown: GST, N-terminal, cleaved) GPLGSMAAPSMKERQVCWGARDEYWKCLDENLEDASQCKKLRSSFESSCPQQWIKAFDKRRDYLKFKEKFEAGQFEPSETTAKS",2
3,"human wild-type Coa6 (^WTCoa6) (natural protein, five residues left at the N terminus after cleavage of the GST tag with PreScission Protease; Coa6, human; isoform 3, composed of residues 47-125 of the full-length Coa6 isoform 1 (UniProtKB Q5JTJ3); the N-terminal residue is numbered Met47; Fully oxidized: intramolecular disulfides Cys58-Cys90 and Cys68-Cys79; also called Coa6 isoform 3; not shown: GST, N-terminal, cleaved) GPLGSMAAPSMKERQVCWGARDEYWKCLDENLEDASQCKKLRSSFESSCPQQWIKYFDKRRDYLKFKEKFEAGQFEPSETTAKS",2
4,"^R101ACoa6 (natural protein, human, five residues left at the N terminus after cleavage of the GST tag with PreScission Protease; Coa6, human; residues 47-125 of the full-length Coa6 isoform 1 (UniProtKB Q5JTJ3), mutation introduced into the ^WTCoa6 ORF; not shown: GST, N-terminal, cleaved) GPLGSMAAPSMKERQVCWGARDEYWKCLDENLEDASQCKKLRSSFESSCPQQWIKYFDKARDYLKFKEKFEAGQFEPSETTAKS",2
5,"^Y104ACoa6 (natural protein, human, five residues left at the N terminus after cleavage of the GST tag with PreScission Protease; Coa6, human; residues 47-125 of the full-length Coa6 isoform 1 (UniProtKB Q5JTJ3), mutation introduced into the ^WTCoa6 ORF; not shown: GST, N-terminal, cleaved) GPLGSMAAPSMKERQVCWGARDEYWKCLDENLEDASQCKKLRSSFESSCPQQWIKYFDKRRDALKFKEKFEAGQFEPSETTAKS",2

# — article PMC6743065, “Structural and functional characterization of the mitochondrial complex IV assembly factor Coa6” (Life Science Alliance, 2019)
